Results reported in patent US20250388652A1.

Key:
[1] = target: F protein mutant RSV-DS-Cav1-B with a DS-Cav1 structure before fusion (respiratory syncytial virus subtype B, strain 18537) (UniProt P13843)
[2] = target: F protein mutant RSV-DS-Cav1-B with a DS-Cav1 structure before fusion (respiratory syncytial virus subtype B, strain 18537) (UniProt P13843); remark: listed apart in the source

Sequence of anti-RSV monoclonal antibody Nirsevimab (MEDI8897) (VH): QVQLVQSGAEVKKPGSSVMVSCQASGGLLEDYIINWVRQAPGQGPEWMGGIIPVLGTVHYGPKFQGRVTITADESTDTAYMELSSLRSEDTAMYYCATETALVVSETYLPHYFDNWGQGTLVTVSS
Sequence of anti-RSV monoclonal antibody Nirsevimab (MEDI8897) (VL): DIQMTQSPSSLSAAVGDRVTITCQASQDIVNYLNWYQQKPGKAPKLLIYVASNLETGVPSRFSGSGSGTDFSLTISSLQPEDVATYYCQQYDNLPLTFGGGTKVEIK
Sequence of anti-RSV monoclonal antibody Clesrovimab (RB1) (VH): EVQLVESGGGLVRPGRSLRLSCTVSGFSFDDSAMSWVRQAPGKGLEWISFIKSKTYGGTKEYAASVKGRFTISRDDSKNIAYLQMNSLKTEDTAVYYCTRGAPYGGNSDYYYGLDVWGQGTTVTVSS
Sequence of anti-RSV monoclonal antibody Clesrovimab (RB1) (VL): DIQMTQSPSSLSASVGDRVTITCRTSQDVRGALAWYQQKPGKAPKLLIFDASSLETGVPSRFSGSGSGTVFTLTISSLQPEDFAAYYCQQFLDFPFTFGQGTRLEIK

Substance: anti-RSV monoclonal antibody Clesrovimab (RB1)
- Kd [1]: 0.00895 nM
- koff [1]: 8.21e-05 s⁻¹
- kon [1]: 9.17e+06 M⁻¹ s⁻¹

Substance: anti-RSV monoclonal antibody Nirsevimab (MEDI8897)
- Kd [1]: 3.08 nM
- koff [1]: 0.000333 s⁻¹
- kon [1]: 108000 M⁻¹ s⁻¹
- EC50 (read off the curve) [2]: 10 nM
